Laboratory results reported in patent publication US5753621A, “Pulmonary surfactant protein fragments” (Abbott Laboratories, priority 1995, dated 1998).
No end group written: not given here. *: point of attachment. Acm = CC(=O)NC*

How the values were obtained:
Type in all cases: physicochemical
[1] = Dynamic surface tension versus compressed surface area, modified Wilhelmy Surface Balance (Langmuir Trough); settings: peptide 0.5 mg/ml (~2% of solids) in DPPC:PG:PA 68:22:9; 675 ug phospholipid on 445 sq. cm trough; recorded during seven complete cycles
Experimental: (§1) Prior to testing for surface activity, the synthetic fragments were admixed with lipids. A lipid mixture consisting of 68% 1,2-dipalmitoyl-sn-phosphatidylcholine (DPPC), 22% egg phosphatidylglycerol (PG) and 9% palmitic acid on a weight basis was prepared by dissolving the lipids in chloroform:methanol (2:1). The required amount of peptide fragment was dissolved in methanol and heated to 60° C. for 10 minutes. The peptide solution was then added to the lipid mixture prewarmed to 45° C. for ten minutes. The samples were mixed at 45° C. by gentle swirling at 100 revolutions per minute on a Buchi rotary evaporator. The organic solvents were then evaporated at 45° C. by increasing the vacuum in 100 torr increments every five minutes until most of the solvent was removed. Final vacuum was between 150-200 torr. Following evaporation, the solids were then suspended in 10% ethanol prewarmed to 45° C. and which was prepared using deionized distilled water. The suspension was gently mixed with vortexing and placed back under vacuum at 600 torr with a repeat of the vacuum ramping process. Final vacuum for the ethanol removal was 50 torr. Following complete removal of ethanol the suspension was diluted with aqueous 0.15M NaCl at 45° C. to yield an admixture with a phospholipid concentration of 25 mg/ml. The peptide/lipid admixtures were formed at final peptide concentrations of 0.5 mg/ml (equivalent to 2% of solids concentration).
The dynamic surface tension lowering properties of the peptide/lipid admixtures were studied using a modified Wilhelmy Surface Balance (Langmuir Trough). The instrument consists of an all Teflon trough and movable Teflon ribbon (dam) barrier system which completely contains and defines a variable surface area. Surface area was varied through the use of a constant rate reversible 3-phase motor to drive the Teflon barrier. A Cahn 2000 electrobalance (Cahn Instruments, Cerittos, Calif.) with a sandblasted 1 cm platinum plate and stainless steel hangdown wire was employed to determine the surface tension at the liquid-air interface. The entire apparatus was situated in a thermostated incubator set at 45° C. Surface area-surface tension measurements were made by adding 950 ml of 0.15M NaCl to the trough. Subphase temperature was controlled during the measurements at 36°-38° C.
For each experiment 27 ul of peptide/lipid admixture was applied in a random array of 13 droplets to the surface of the temperature controlled subphase and allowed to spread spontaneously for 3 minutes. (The 27 ul application corresponds to 675 ug of phospholipid). The trough surface area was then cycled from a maximum (445 sq. cm) to a minimum (178 sq. cm) surface area and back to maximum at a cycling rate of 3 cycles/min (compression ratio 2.5:1). The dynamic surface tension versus surface area was recorded for 7 complete compression-expansion cycles for each application.

[2] = Pulsating Bubble Surfactometer (PBS) surface tension; settings: after 5 minutes pulsation (100 cycles); 1 mg/ml phospholipid, peptide 2% of phospholipids; 0.15M NaCl; 37° C.; 20 cycles/minute; SD in parenthesis
Experimental: as §1
The PBS equipment (Electronetics, Buffalo, N.Y.) used was essentially equivalent to that described in detail by G. Enhorning, J. Appld. Physiol. 43, 198-203, (1977). Recordings were made of the pressure gradient across the wall of a small air bubble, communicating with ambient air by means of a narrow chimney stack, but otherwise entirely surrounded by a 40 ul volume of the peptide/lipid admixture. The admixture concentration employed for these studies was 1 mg/ml total phospholipid (0.02 mg/ml total peptide) and the diluent was 0.15M NaCl.
Immediately prior to loading the sample chamber, the diluted samples were sonicated for 15 seconds to remove any gas nuclei.
The pressure drop across the air-water interface was measured during pulsation by a pressure transducer, and the corresponding surface tension was determined at minimum and maximum bubble size through the application of Young's law and the Laplace equation. Measurements were all made at 37° C. and the bubble pulsed at 20 cycles/minute to render respectively a maximum (1.1 mm) and a minimum (0.8 mm) bubble diameter. (This compression/expansion corresponds to a 50% change in the surface area of the air-water interface).

[3] = Relative surface activity by dilution studies on the modified Wilhelmy Balance-Langmuir Trough; settings: for Mean Minimum Surface Tension, relative peptide concentration 1/2: 1/2 dilution of equimolar stock with lipid mixture; for Mean Minimum Surface Tension, relative peptide concentration 1/2 / Mean Minimum Surface Tension, relative peptide concentration 1/4 / Mean Minimum Surface Tension, relative peptide concentration 1/8 / Mean Minimum Surface Tension, relative peptide concentration 1/16 / Mean Minimum Surface Tension, relative peptide concentration Equimolar / Mean Minimum Surface Tension, relative peptide concentration 2%: 675 ug phospholipid; for Mean Minimum Surface Tension, relative peptide concentration 1/4: 1/4 dilution of equimolar stock with lipid mixture; for Mean Minimum Surface Tension, relative peptide concentration 1/8: 1/8 dilution of equimolar stock with lipid mixture; for Mean Minimum Surface Tension, relative peptide concentration 1/16: 1/16 dilution of equimolar stock with lipid mixture; for Mean Minimum Surface Tension, relative peptide concentration Equimolar: equimolar to 0.5 mg/mL SP-B(53-78); for Mean Minimum Surface Tension, relative peptide concentration Equimolar / Mean Minimum Surface Tension, relative peptide concentration 2%: 445 sq. cm trough; for Mean Minimum Surface Tension, relative peptide concentration 2%: peptide 2% of solids (0.5 mg/ml); for surface activity (in words): summary of Tables 3, 4 and 5
Experimental: For the purpose of this comparison "surface activity" is defined as follows: For any given peptide concentration, the admixture is required to result in a minimum dynamic surface tension of less than 10 dynes/cm for each of seven consecutive expansion/compression cycles.
Initially each of the admixtures was formulated so as to contain an equal number of moles of the individual peptide as is contained in a 0.5 mg/mL admixture of SP-B(53-78). […] Thereafter, each of these admixtures was diluted with the standard lipid mixture as described in Example 4, so as to provide doubling dilutions of the equimolar "parent" stock peptide admixture. The lipid concentration in all cases was maintained at 25 mg/ml.
Assessment of relative surface activity was conducted on the modified Wilhemy-Langmuir Surface Balance. For these studies a standard volume of 27 ul of each admixture, corresponding to a total phospholipid mass of 675 ug, was applied to the Langmuir Trough with maximum dimensions of 445 sq. cm.

[4] = Adsorption capacity, modified Wilhelmy surface balance; settings: measured after three (3) minutes spreading time; peptide 0.5 mg/ml (~2% of solids)
Experimental: as §1
A procedure similar to that described by Notter, et al., Pediatric Res. 16, 515-519 (1982) was employed to determine the absorption rate in the absence of diffusion resistance. The modified Wilhelmy surface balance as described above was used. However, instead of using a Langmuir trough, a round Teflon dish (5.1 cm diameter) was employed. The subphase, 70 ml of 0.15M NaCl, was allowed to equilibrate to 37° C. in the incubator and was continuously stirred with a Teflon coated magnetic stirrer. An aliquot of the peptide/lipid fragment admixture containing 5 mg of total phospholipid was dispersed in 10 ml of 0.15M NaCl by vortexing for 10 seconds. This dispersion was then added to the saline subphase. Surface tension lowering was monitored using a strip chart recorder connected to the electro-balance output.

Row | Substance | Surface Tension Maximum [1] [dynes/cm] | Surface Tension Minimum [1] [dynes/cm] | Surface tension Maximum (maximum bubble size) [2] | Surface tension Minimum (minimum bubble size) [2] | Mean Minimum Surface Tension, relative peptide concentration 1/2 [3] [mN/m] | Mean Minimum Surface Tension, relative peptide concentration 1/4 [3] [mN/m] | Mean Minimum Surface Tension, relative peptide concentration 1/8 [3] [mN/m] | Mean Minimum Surface Tension, relative peptide concentration 1/16 [3] [mN/m] | Mean Minimum Surface Tension, relative peptide concentration Equimolar [3] [mN/m] | Mean Minimum Surface Tension, relative peptide concentration 2% [3] [mN/m] | Adsorption (equilibrium adsorption surface tension) [4] [dynes/cm] | surface activity (in words) [3]
1 | SP-B(66-78)diLys: SP-B positions 66-78, cysteines 71 and 77 replaced with lysine (LPQLVKRLVLRKS; Pulmonary surfactant-associated protein B; UniProt P07988 266-278, looked up, variant C71K C77K) | 56.5 | 2.6 | 55.1 (6.6) dyne/cm | 1.8 (0.5) dyne/cm | 8.2 | 7.0 | 15.0 | 23.0 | 2.5 | 2.6 | 48.9 | –
2 | SP-B(53-78)diAcm: SP-B positions 53-78, cysteines 71 and 77 capped with S-acetamidomethyl (Acm) groups (YSVILLDTLLGRMLPQLVC(Acm)RLVLRC(Acm)S; UniProt P07988 253-278, looked up, fragment) | 49.5 | 0.1 | 54.1 (2.6) dyne/cm | 4.1 (3.1) dyne/cm | – | – | – | – | – | 0.1 | 47.0 | unusual surface activity
3 | SP-B(69-78): synthesized SP-B peptide fragment, positions 69-78, 10 amino acids (LVCRLVLRCS; Pulmonary surfactant-associated protein B; UniProt P07988 269-278, looked up, fragment) | 65.0 | 6.3 | 64.0 (5.0) dyne/cm | 27.3 (0.5) dyne/cm | 12.5 | 13.8 | 12.2 | – | 13.3 | 6.3 | 56.5 | –
4 | SP-B(58-78)diAla: SP-B positions 58-78, cysteines 71 and 77 replaced by alanine (LDTLLGRMLPQLVARLVLRAS; Pulmonary surfactant-associated protein B; UniProt P07988 258-278, looked up, variant C71A C77A) | 57.0 | 0.2 | 52.0 (3.3) dyne/cm | 7.5 (1.2) dyne/cm | 0.3 | 1.5 | 4.7 | 24.1 | 0.0 | 0.2 | 39.7 | unusual surface activity
5 | SP-B(53-78): replica of the 26 residue carboxyl terminal region of native human SP-B (YSVILLDTLLGRMLPQLVCRLVLRCS; Pulmonary surfactant-associated protein B; UniProt P07988 253-278, looked up, fragment) | 50.4 | 1.1 | 56.7 (2.9) dyne/cm | 1.5 (0.6) dyne/cm | 0.6 | 0.5 | 2.0 | 14.5 | 0.7 | 0.1 | 47.0 | –
6 | SP-B(66-78): synthesized SP-B peptide fragment, positions 66-78, 13 amino acids (LPQLVCRLVLRCS; not fully specified; cysteine pairing not given here; UniProt P07988 266-278, looked up, fragment) | 50.7 | 0.7 | 61.5 (5.4) dyne/cm | 9.4 (1.4) dyne/cm | 2.8 | 6.7 | 14.9 | 22.0 | 0.6 | 0.7 | 47.5 | –
